Experimental data from paper PMC4336380, “Promiscuous Binding of Karyopherinβ1 Modulates FG Nucleoporin Barrier Function and Expedites NTF2 Transport Kinetics” (Biophysical Journal, 2015).

Target: T1, wild-type rat NTF2 (nuclear transport factor 2) (rat, UniProt P61972 1-127)
T1 construct: also called wild-type NTF2; source: E. coli BL21(DE3) CodonPlus RIL, purified (NiNTA agarose, gel filtration Superdex S-75)
Experiment: SPR; Biacore T100, 25°C, PBS pH 7.2; Nsp1p fragment grafted on gold; multivalent kinetic analysis: discrete distribution of kinetic states (kon,i, koff,i), interaction maps averaged over ~10 sensorgrams
Settings: both partners purified

T1 sequence (P61972 whole entry): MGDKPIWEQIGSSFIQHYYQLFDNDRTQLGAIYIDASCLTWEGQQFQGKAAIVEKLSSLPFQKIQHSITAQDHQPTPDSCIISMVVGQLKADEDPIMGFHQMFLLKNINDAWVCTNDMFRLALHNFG

B1: Nsp1p-5FF (yeast Nsp1p FG fragment, residues 262-359; 1x FG, 4x FSFG) (domain or fragment)
chain: not shown
notes: Nsp1p, yeast, FG fragment residues 262-359 (1x FG, 4x FSFG), in a modified pET30a vector; Grafted to the gold SPR sensor through the added N-terminal Cys residues; The vector carries a TEV site in place of the thrombin site; no cleavage is described; source: E. coli BL21(DE3) CodonPlus RIL, purified (NiNTA agarose, Superdex S-75); not shown: Cys-Cys-Trp (after the initiator Met), N-terminal, …
  binding result: binds
